Substrate in the data set: O=P(O)(O)OC[C@@H](O)[C@@H](O)[C@H](O)[C@H](O)CO
Nature of the data set: purified protein. The note with it: 3 mM DTT added; other conditions presumably as for EsM1Pase1short.

One protein from publication doi:10.1101/2020.07.01.179531v1 can be followed below.

As usually defined, the Km is the concentration of substrate that gives half-maximal velocity. As usually defined, the kcat is the maximal rate divided by the concentration of active sites.

B1: EsM1Pase2 (Ectocarpus siliculosus) (protein)
chain: MEKAKAFDKMSILFDFDGTIGDTETPAMEVAFWELAPYLPDTTPDKLDGLMPEFVRDNAGKAFEFMVEKVDEDRKAAGLSTISEAFAAKSEPKEMLDAVDPHRKKFGLKTFAELRAPDGGEKENLLIQQKTETVDALSKIAQPCNGVPEVLAALTAAGVAFCISTTSPKPRVPASITACKLDEYFPADKVHSGESDFDPPRFKPNPSVYLKAAETEGKEPANCIAVEDSGSGVGSASNAGVGLTVGYVGASHIPDYKKDTHAEMLMSGGRAENGKGAEIVISDMTDLPKVIEFFAGEKIAGKSAPFDFPEELISSLKQPVWVHSTKA
With B1, the Km amounted to 1300 µM and the turnover number (kcat) stood at 0.05 s⁻¹.
